Paper PMC7716884

Molecular target: insulin lispro
Test: SEC-MALS

## insulin lispro (ligand)
  stoichiometry N: 6
